Results taken from PMC8930769.

Target: native human uromodulin (UMOD), full-length, filaments (human) (UniProt P07911)
Assay: cryo-EM structure; purified native UMOD filaments and His-tagged FimHL A27V mixed at a molar ratio of 1:3, 30 min, dialysed against 10 mM Na-HEPES pH 7.0; single-particle cryo-EM, 7.4 Å; FimHL docked into the difference map

His-tagged FimHL A27V from UPEC strain UTI89 (from UniProt Q1R2J4 22-179) (domain or fragment)
stoichiometry N: 1
